Consider nine molecules from article doi:10.1101/2025.08.19.670962, “Structural basis for binding of RILPL1 to TMEM55B reveals a lysosomal platform for adaptor assembly through a conserved TBM motif” (bioRxiv, 2025).

Several values for one entry are separate records, joined by “and”; a condition that tells them apart may be missing. Equal values may be shown once.

T1: His-tagged PH domain of OCRL (1-129) (UniProt Q01968 1-129)
T1 construct: OCRL (OCRL1), PH domain, residues 1-129; also called OCRL PH domain; source: E. coli, purified (protocol similar to that of TMEM55B, no ZnCl2 added)
T1 sequence (looked up): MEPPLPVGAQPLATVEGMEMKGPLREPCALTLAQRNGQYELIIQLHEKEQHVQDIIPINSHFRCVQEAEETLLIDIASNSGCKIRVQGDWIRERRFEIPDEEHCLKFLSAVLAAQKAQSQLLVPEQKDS

B1: JIP4 887-897 (peptide)
peptide: TAEEATEATEG
notes: JIP4, residues 887-897; source: synthetic peptide (Genscript)
B2: TMEM55B (80-166), untagged, wild type (domain or fragment)
chain: not shown
notes: N-terminal peptide left from the pET15b expression vector; TMEM55B, residues 80-166; numbers count on: UniProt Q86T03 isoform 2 (284 residues); also called WT TMEM55B region 80-166; source: E. coli BL21(DE3), purified (Ni-NTA, thrombin, second Ni-NTA, gel filtration)
B3: His-WDR81 657-668 (peptide)
peptide: GSDDLEQATEALDS
notes: linker after the His6 tag; WDR81, residues 657-668; also called His-tagged WDR81 peptide; source: synthetic peptide (Genscript); not shown: His6, N-terminal, kept
B4: His-JIP4 887-897 (peptide)
peptide: GSTAEEATEATEG
notes: linker after the His6 tag; JIP4, residues 887-897; also called His-tagged JIP4 peptide; source: synthetic peptide (Genscript); not shown: His6, N-terminal, kept
B5: His-RILPL1 391-403 (peptide)
peptide: GSGYTEQGQEALQHL
notes: linker after the His6 tag; also called His-tagged RILPL1 peptide; source: synthetic peptide (Genscript); not shown: His6, N-terminal, kept
B6: WDR81 657-668 (peptide)
peptide: DDLEQATEALDS
notes: WDR81, residues 657-668; source: synthetic peptide (Genscript)
B7: OCRL-PH domain (as used in ITC) (domain or fragment, UniProt Q01968 1-119, looked up)
chain: MEPPLPVGAQPLATVEGMEMKGPLREPCALTLAQRNGQYELIIQLHEKEQHVQDIIPINSHFRCVQEAEETLLIDIASNSGCKIRVQGDWIRERRFEIPDEEHCLKFLSAVLAAQKAQS
notes: OCRL, PH domain; residues 1-129 are stated for the His-tagged variant of the pull-down; Probably the construct of m14; source: E. coli, purified (protocol similar to that of TMEM55B, no ZnCl2 added)
B8: JIP3 889-903 (peptide)
peptide: SQSTEEATEATEVPD
notes: JIP3, residues 889-903; source: synthetic peptide (Genscript)
B9: RILPL1 391-403 peptide (peptide)
peptide: GYTEQGQEALQHL
notes: also called RL1pep; RILPL1 peptide; source: synthetic peptide (Genscript)

Settings in all cases: both partners purified
The target in experiment [1] is T2, TMEM55B (80-160) (UniProt Q86T03-2 80-160).
T2 construct: TMEM55B, residues 80-160; numbers count on: UniProt Q86T03 isoform 2; source: E. coli, purified
T2 sequence (Q86T03 73-153): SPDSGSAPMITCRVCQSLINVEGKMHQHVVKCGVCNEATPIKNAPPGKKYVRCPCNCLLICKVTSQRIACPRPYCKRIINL
The experiment is described as follows: ITC; peptide or OCRL PH domain injected into the cell with TMEM55B_(80-160); ITC200; Tris-HCl, 150mM NaCl, 1mM DTT, pH 7.5; single binding mode.

In experiment [2] the target is T1, His-tagged PH domain of OCRL (1-129). Put plainly: pull-down; 10μM His-tagged peptide or His-tagged OCRL PH domain as bait on Ni2+-agarose, 10μM untagged TMEM55B as prey; 20 mM Tris pH 8.0, 300 mM NaCl, 20mM imidazole, 10 mM β-mercaptoethanol; Coomassie.
The target in experiment [3] is B2. The experiment is described as above.
For experiment [4], the target named is B2. The experiment is described as follows: SEC-MALS; Superdex75 10/300 GL, 1-1.5 mg/mL, TMEM55B_(80-166) alone or with RILPL1 peptide.

In the case of B1, in experiment [1], the Kd is 2.9 µM and 2.2 µM and 3.1 µM; the dH is -37.2 kJ/mol and -40.6 kJ/mol and -36.4 kJ/mol; the “stoichiometry N” value is 1 and 0.91 and 0.78.

In the case of B2, the binding result in experiment [2] was “binds”.

Consider B3, for which the binding result in experiment [3] is reported as “binds”.

Consider B4, for which, in experiment [3], the binding result was “binds”.

For the molecule B5, in experiment [1], the Kd was 0.68 µM and 0.59 µM and 1 µM; the dH is -47.7 kJ/mol and -50.6 kJ/mol and -56.9 kJ/mol; the “stoichiometry N” value is 0.87 and 0.95.

With B6, in experiment [1], the Kd is 0.02 µM and 0.033 µM and 0.012 µM; the dH was -37.7 kJ/mol and -38.1 kJ/mol and -36.4 kJ/mol; the “stoichiometry N” value was 0.94 and 1.1.

B7: in experiment [1], the dH is -22.2 kJ/mol and -24.7 kJ/mol and -28 kJ/mol; the “stoichiometry N” value was 0.69 and 0.86 and 0.68.

With B8, in experiment [1], the Kd is 0.127 µM and 0.126 µM and 0.103 µM; the dH was -34.3 kJ/mol and -38.9 kJ/mol; the “stoichiometry N” value was 1.2 and 0.99 and 1.1.

With B9, in experiment [4], the “stoichiometry N” value was 1.
